Source: patent US5616559, “Papillomavirus E2 trans-activation repressors” (Biogen, Inc., dated 1997)
Changes are numbered by the printed parent chain.

B1: BPV1 E2 mutant 333V in the E2 repressor format (C-terminal 249 amino acids) (other)
chain: MAGAGRIYYSRFGDEAARFSTTGHYSVRDQDRVYAGVSSTSSDFRDRPDGVWVASEGPEGDPAGKEAEPAQPVSSLLGSPACGPIRAGLGWVRDGPRSHPYNFPAGSGGSILRSSSTPVQGTVPVDLASRQEEEEQSPDSTEEEPVTLPRRTTNDGFHLLKAGGSCFALISVTANQVKCYRFRVKKNHRHRYENCTTTWFTVADNGAERQGQAQILITFGSPSQRQDFLKHVPLPPGMNISGFTASLDF
B2: BPV1 E2 mutant 337L in the E2 repressor format (C-terminal 249 amino acids) (other)
chain: B1 chain with V172G, Q176L
B3: BPV1 E2 mutant 339M in the E2 repressor format (C-terminal 249 amino acids) (other)
chain: B1 chain with V172G, K178M
B4: BPV1 E2 mutant 340F in the E2 repressor format (C-terminal 249 amino acids) (other)
chain: B1 chain with V172G, C179F
B5: BPV1 E2 mutant 340G in the E2 repressor format (C-terminal 249 amino acids) (other)
chain: B1 chain with V172G, C179G
B6: BPV1 E2 mutant 340R in the E2 repressor format (C-terminal 249 amino acids) (other)
chain: B1 chain with V172G, C179R
B7: BPV1 E2 mutant 340S in the E2 repressor format (C-terminal 249 amino acids) (other)
chain: B1 chain with V172G, C179S
B8: BPV1 E2 mutant 340Y in the E2 repressor format (C-terminal 249 amino acids) (other)
chain: B1 chain with V172G, C179Y
B9: BPV1 E2 mutant 344L in the E2 repressor format (C-terminal 249 amino acids) (other)
chain: B1 chain with V172G, R183L
B10: BPV1 E2 mutant 360S in the E2 repressor format (C-terminal 249 amino acids) (other)
chain: B1 chain with V172G, W199S
B11: BPV1 E2 mutant 386W in the E2 repressor format (C-terminal 249 amino acids) (other)
chain: B1 chain with V172G, R225W
B12: BPV1 E2 mutant 399I in the E2 repressor format (C-terminal 249 amino acids) (other)
chain: B1 chain with V172G, M238I
B13: BPV1 E2 repressor with a tryptophan to asparagine mutation at amino acid residue 360 (other)
chain: B1 chain with V172G, W199N
B14: E2-85 (methionine, alanine and the C-terminal 83 amino acids of HPV16 E2) (other)
chain: MASNTTPIVHLKGDANTLKCLRYRFKKHCTLYTAVSSTWHWTGHNVKHKSAIVTLTYDSEWQRDQFLSQVKIPKTITVSTGFMSI
B15: E2-123 (methionine, valine and the C-terminal 121 amino acids of HPV16 E2) (other)
chain: MVPDTGNPCHTTKLLHRDSVDSAPILTAFNSSHKGRINCNSNTTPIVHLKGDANTLKCLRYRFKKHCTLYTAVSSTWHWTGHNVKHKSAIVTLTYDSEWQRDQFLSQVKIPKTITVSTGFMSI
B16: BPV1 E2 mutant 360S, full-length form (other)
chain: METACERLHVAQETQMQLIEKSSDKLQDHILYWTAVRTENTLLYAARKKGVTVLGHCRVPHSVVCQERAKQAIEMQLSLQELSKTEFGDEPWSLLDTSWDRYMSEPKRCFKKGARVVEVEFDGNASNTNWYTVYSNLYMRTEDGWQLAKAGADGTGLYYCTMAGAGRIYYSRFGDEAARFSTTGHYSVRDQDRVYAGVSSTSSDFRDRPDGVWVASEGPEGDPAGKEAEPAQPVSSLLGSPACGPIRAGLGWVRDGPRSHPYNFPAGSGGSILRSSSTPVQGTVPVDLASRQEEEEQSPDSTEEEPVTLPRRTTNDGFHLLKAGGSCFALISGTANQVKCYRFRVKKNHRHRYENCTTTSFTVADNGAERQGQAQILITFGSPSQRQDFLKHVPLPPGMNISGFTASLDF
B17: BPV1 E2 mutant 333V, full-length form (other)
chain: B16 chain with G333V, S360W

Each molecule was assayed against full-length native BPV1 E2 trans-activator protein (bovine papillomavirus type 1 (BPV1)) (UniProt P03122) (assay: not given).

Molecule | Repression as % decrease in trans-activation by E2 [%]
BPV1 E2 mutant 402* in the E2 repressor format (from UniProt P03122) | 45.2
BPV1 E2 mutant 408* in the E2 repressor format (from UniProt P03122) | 59.5
BPV1 E2 mutant 370I in the E2 repressor format (C-terminal 249 amino acids) (from UniProt P03122) | 66.1
BPV1 E2 mutant 374S/375L/391I (3SLI) in the E2 repressor format (C-terminal 249 amino acids) (from UniProt P03122) | 39
BPV1 E2 mutant 316Y in the E2 repressor format (C-terminal 249 amino acids) (from UniProt P03122) | 8
BPV1 E2 mutant 411* in the E2 repressor format (from UniProt P03122) | 4.5
BPV1 E2 mutant 366Y/376L in the E2 repressor format (C-terminal 249 amino acids) (from UniProt P03122) | 16.1
BPV1 E2 mutant 317STOP in the E2 repressor format (from UniProt P03122) | 7.1

Each molecule was assayed against full-length HPV16 E2 protein (human papillomavirus type 16 (HPV16)) (UniProt P03120) (assay: not given).

Molecule | % REPRESSION (hGH reporter) [%]
native BPV1 E2 repressor (C-terminal 249 amino acids of the BPV1 E2 protein) (from UniProt P03122) | 100

Molecular target: full-length native BPV1 E2 trans-activator protein (bovine papillomavirus type 1 (BPV1)) (UniProt P03122)
Test: not given
Remark: another data set of the same source

Molecule | % repression of E2-dependent trans-activation (CAT or hGH reporter) [%]
native BPV1 E2 repressor (C-terminal 249 amino acids of the BPV1 E2 protein) (from UniProt P03122) | > 80

What follows are molecules tested against full-length native BPV1 E2 trans-activator protein (bovine papillomavirus type 1 (BPV1), UniProt P03122) (assay: cell-based or functional assay).

Molecule | Repression as % decrease in trans-activation by E2 [%]
B1 | 0
B2 | 90.4
B3 | 76.2
B4 | 86.1
B5 | 91.7
B6 | 95.6
B7 | 89.6
B8 | 93.5
B9 | 82.6
B10 | 32.3
B11 | 81.4
B12 | 86.9

Each molecule was assayed against full-length HPV16 E2 protein (human papillomavirus type 16 (HPV16), UniProt P03120) (assay: cell-based or functional assay).

Molecule | % REPRESSION (hGH reporter) [%]
B13 | 0
B14 | 87.2
B15 | 100

Molecular target: the molecule itself
Test: homodimerization; UV cross-linking, yeast extract

Molecule | binding result
B16 | no binding

Molecular target: the molecule itself
Test: homodimerization; UV cross-linking, SDS-PAGE, immunoblot

Molecule | binding result
B17 | no binding
